# Reference: publication PMC3680417, “Phosphorylation of the Leukemic Oncoprotein EVI1 on Serine 196 Modulates DNA Binding, Transcriptional Repression and Transforming Ability”
# Assays:
# GST-Evi1 ZF1-7 WT = GST-Evi1 ZF1-7 WT (mouse, UniProt P14404-1 21-239); test: EMSA; EMSA as in cited ref. 6; native 5% acrylamide gel; buffer, salt, pH and temperature not stated; settings: protein: recombinant; tags: GST (N-terminal, pGEX); label: 5' IRDye
# GST-Evi1 ZF1-7 S196A = GST-Evi1 ZF1-7 S196A (mouse, UniProt P14404-1 21-239, S196A); test: as above; settings: protein: recombinant; tags: GST (N-terminal, pGEX); label: 5' IRDye
# Chain of GST-Evi1 ZF1-7 S196A (P14404 211-429 S386A): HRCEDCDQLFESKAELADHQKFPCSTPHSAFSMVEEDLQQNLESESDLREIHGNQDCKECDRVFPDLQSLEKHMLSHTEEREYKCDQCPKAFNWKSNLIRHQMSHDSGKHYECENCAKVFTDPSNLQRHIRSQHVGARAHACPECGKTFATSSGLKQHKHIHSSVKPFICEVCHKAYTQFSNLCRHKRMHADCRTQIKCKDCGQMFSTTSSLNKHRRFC
# Chain of GST-Evi1 ZF1-7 WT (P14404 211-429): as the sequence (P14404 211-429 S386A) above, with A176S counted along it
binder,measurement,setting,value
EVI1 ZF1-7 target EMSA probe (dsDNA) DNA 1: ACCCATGGAGCTTTGAGCCCTGTTATCTTGTCAGGGAAGTGTACCATGGA DNA 2: TCCATGGTACACTTCCCTGACAAGATAACAGGGCTCAAAGCTCCATGGGT,binding result,GST-Evi1 ZF1-7 WT,binds
same,binding result,GST-Evi1 ZF1-7 S196A,binds
